Test results published in the supplement of paper PMC7125110.
± gives the standard error. For some assays here: Variants at the floor of the assay were thinned out.

B1: glmS ribozyme (parent)
chain: AUAAAAGCGCCAGAACUACAGAAAUGUAGUUGACGAGGAGGAGGUUUAUCGAAUUUUCGGCGGAUGCCUCCAAA

Key:
Settings in all cases: with glucosamine-6-phosphate
glucosamine-6-phosphate [1] = variants of: B1; assay: kcat; higher = faster cleavage; RNA array
Summary of the method: (§1)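 Barcoded ribozyme variants, transcribed in situ by E. coli RNA polymerase on sequenced MiSeq chips, were followed via a hybridised Cy3 probe at 37 °C. Glucosamine-6-phosphate ranged from 40 μM to 10 mM in HEPES/KCl/Mg(OAc)2 buffer. kobs came from decay fits to per-tile medians, and kcat and KM from weighted Michaelis–Menten fits.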

glucosamine-6-phosphate [2] = variants of: B1; assay: self-cleavage kobs at 2500 uM GlcN6P; higher = faster cleavage; RNA array
Summary of the method: as §1

glucosamine-6-phosphate [3] = variants of: B1; assay: self-cleavage kobs at 10000 uM GlcN6P; higher = faster cleavage; RNA array
Summary of the method: as §1

glucosamine-6-phosphate [4] = variants of: B1; assay: KM; higher = weaker cofactor use; RNA array
Summary of the method: as §1

glucosamine-6-phosphate [5] = variants of: B1; assay: self-cleavage kobs at 40 uM GlcN6P; higher = faster cleavage; RNA array
Summary of the method: as §1

glucosamine-6-phosphate [6] = variants of: B1; assay: self-cleavage kobs at 640 uM GlcN6P; higher = faster cleavage; RNA array
Summary of the method: as §1

glucosamine-6-phosphate [7] = variants of: B1; assay: self-cleavage kobs at 160 uM GlcN6P; higher = faster cleavage; RNA array
Summary of the method: as §1

| Variant | kcat (glucosamine-6-phosphate [1]) [s⁻¹] | self-cleavage kobs at 2500 uM GlcN6P (glucosamine-6-phosphate [2]) [s⁻¹] | self-cleavage kobs at 10000 uM GlcN6P (glucosamine-6-phosphate [3]) [s⁻¹] | KM (glucosamine-6-phosphate [4]) [µM] | self-cleavage kobs at 40 uM GlcN6P (glucosamine-6-phosphate [5]) [s⁻¹] | self-cleavage kobs at 640 uM GlcN6P (glucosamine-6-phosphate [6]) [s⁻¹] | self-cleavage kobs at 160 uM GlcN6P (glucosamine-6-phosphate [7]) [s⁻¹] |
| --- | --- | --- | --- | --- | --- | --- | --- |
| AUAAAAGCGCCAGAACUACAGAAAUGUAGUUGACGAGGAGGAGGUUCAUCGAAUUUACGGCGGAUGCCUCCAAA [U47C U57A] | 0.000495 ± 0.00012 | 2.94e-05 ± 1.3e-05 | 0.0001 ± 2.7e-05 | – | – | – | – |
| AUAAAAGCGCCAGAACUACAGAAAUGUAGUUGACGAGGAGGAGGUUCAUCGACUUUUCGGCGGAUGCCUCCAAA [U47C A53C] | 0.00196 ± 0.00041 | 0.00163 ± 0.00044 | 0.00173 ± 0.00032 | 1380 ± 440 | 6.18e-05 ± 1.1e-05 | 0.000497 ± 0.00012 | – |
| AUAAAAGCGCCAGAACUACAGAAAUGUAGUUGACGAGGAGGAGGUUCAUCGAAUUCUCGGCGGAUGCCUCCAAA [U47C U56C] | 0.00115 ± 0.00017 | 0.00061 ± 0.00012 | 0.000972 ± 0.00016 | 1940 ± 650 | – | 0.000323 ± 7.3e-05 | – |
| AUAAAAGCGCCAGAACUACAGAAAUGUAGUUGACGAGGAGGAGGUUCAUCGAAUUAUCGGCGGAUGCCUCCAAA [U47C U56A] | 0.00197 ± 0.00092 | 0.00159 ± 0.00039 | 0.00143 ± 0.00023 | – | 3.94e-05 ± 9.3e-06 | 0.000985 ± 0.00018 | 8.88e-05 ± 1.6e-05 |
| AUAAAAGCGCCAGAACUACAGAAAUGUAGUUGACGAGGAGGAGGUUCAUCGAAUUUUCGGCGGAUGCCACCAAA [U47C U69A] | 0.000275 ± 6.6e-05 | 0.000178 ± 5.8e-05 | 0.00023 ± 3.1e-05 | – | 2.9e-05 ± 1.4e-05 | 5.97e-05 ± 2.2e-05 | – |
| AUAAAAGCGCCAGAACUACAGAAAUGUAGUUGACGAGGAGGAGGUUCAUCGAAUUUUGGGCGGAUGCCUCCAAA [U47C C58G] | 6.37e-05 ± 7.3e-07 | 3.41e-05 ± 1.1e-05 | 5.23e-05 ± 7.5e-06 | 2170 ± 92 | – | – | – |
| AUAAAAGCGCCAGAACUACAGAAAUGUAGUUGACGAGGAGGAGGUUGAUCGAAUUUUCGGCGGAUGCCUCCAAA [U47G] | 0.0175 ± 0.00086 | 0.00997 ± 0.00041 | 0.0142 ± 0.00058 | 2130 ± 130 | 0.000326 ± 7.1e-06 | 0.00389 ± 0.00017 | 0.00112 ± 9.8e-05 |
| AUAAAAGCGCCAGAACUACAGAAAUGUAGUUGACGAGGAGGAGGUUCAUCGAAUUUUCGGCGGAUGCAUCCAAA [U47C C68A] | 3.98e-05 ± 6.2e-06 | 4.92e-05 ± 1.8e-05 | 3.44e-05 ± 1.2e-05 | – | – | – | – |
| AUAAAAGCGCCAGAACUACAGAAAUGUAGUUGACGAGGAGGAGGUUCAUCGAAUUUUCGGCGGAUGCUUCCAAA [U47C C68U] | 0.00114 ± 0.0002 | 0.000609 ± 0.0001 | 0.00107 ± 0.00015 | 1650 ± 540 | 3.33e-05 ± 1.2e-05 | 0.000286 ± 4.6e-05 | 0.000149 ± 3.6e-05 |
| AUAAAAGCGCCAGAACUACAGAAAUGUAGUUGACGAGGAGGAGGUUCAUCGAAUUUUGAGUGGAUGCCUCAAAA [U47C C58G G59A C61U C71A] | 1.36e-05 ± 3.4e-06 | – | – | – | – | – | – |
| AUAAAAGCGCCAGAACUACAGAAAUGUAGUUGACGAGGAGGAGGUUCAUCGAAUUUUCGGCGGAUGCCUCAAAA [U47C C71A] | 0.00134 ± 0.00043 | 0.000441 ± 0.00011 | 0.00101 ± 0.00017 | – | 4.8e-05 ± 2e-05 | 0.000204 ± 4.2e-05 | 4.4e-05 ± 1.9e-05 |
| AUAAAAGCGCCAGAACUACAGAAAUGUAGUUGACGAGGAGGAGGUUCAUCGAAUUUUCGGCGGAUGCCUCGAAA [U47C C71G] | 0.000277 ± 6.2e-05 | 0.000253 ± 3.8e-05 | 0.000197 ± 5.1e-05 | – | – | 0.000116 ± 1.9e-05 | – |
| AUAAAAGCGCCAGAACUACAGAAAUGUAGUUGACGAGGAGGAGGUUCAUCGAACUUUCGGCGGAUGCCUCCAAA [U47C U54C] | 0.00359 ± 0.00063 | 0.00299 ± 0.00053 | 0.00275 ± 0.00046 | 1240 ± 310 | 9.72e-05 ± 1.5e-05 | 0.00141 ± 0.00017 | 0.000434 ± 7.2e-05 |
| AUAAAAGCGCCAGAACUACAGAAAUGUAGUUGACGAGGAGGAGGUUCAUCUAAUUUUCGGCGGAUGCCUCCAAA [U47C G51U] | < 1e-05 | – | < 1e-05 | – | – | < 1e-05 | – |
| AUAAAAGCGCCAGAACUACAGAAAUGUAGUUGACGAGGAGGAGGUUCAUCGAAUUUUCGGCGGAUGCCUUCAAA [U47C C70U] | 0.00786 ± 0.0023 | 0.00519 ± 0.00095 | 0.00635 ± 0.0016 | 2070 ± 790 | 0.000179 ± 2.6e-05 | 0.00151 ± 0.00028 | 0.000483 ± 0.00014 |
